Data taken from PMC7353701, “Molecular characterization and heterologous expression of two α-glucosidases from Metschnikowia spp, both producers of honey sugars” (Microbial Cell Factories, 2020).
Residue numbers refer to the chain shown, from its start.

B1: Mg-αGlu (Metschnikowia gruessii) (protein)
chain: MTDAIWWKDASVYQIWPASYKDSNGDGFGDIPGVISTLDYIKNLGVDVIWLSPMYDSPQDDMGYDVADYENVYPKYGTLEDMDTLISEVHARGMKLILDLVINHTSTAHKWFEESKSDKENPKRDWYIWKPARYDEDGNRHPPNNWQSYFSGSAWEYDENTDEYYLHLFAKSQPDLNWENDETRQAIYDSALTFWFEKGVDGFRIDTAGMYSKVQTFEDAPIVFPDLEWQPCTDFHQSGPRIHEFHKEMFEKVTSKYDAMTVGEVGHSSREDALKYVSAQEKEMNMMFLFDLVEVGSNPSDRFRYDGFKLTDFKQAVSNMSSFSEGTDAWSTCFFENHDQPRCITRFGNDSPEYLFRSGKMLATLLTSLTGTLFIYQGQEFGMTNVPLEWNIDEYKDINTVNYYQLYVEKNGEENVGELIKNINLVARDNARTPVQWDGTENGGFSTGQPWMRVNDNYQQVNAASQVNDPESLYNFYKKALEVRKEHKDVLIYGSLEIIDFDDERVFSFYKKSGDKTAYVVLNFTKDPIDFKPAVESELELVLTNEREIRDDVLSPYESRLYIVKN
B2: Mr-αGlu (Metschnikowia reukaufii) (protein)
chain: B1 chain with T233A, S300K, R304I, S318A

How the values were obtained:
[1] = substrate: OC[C@H]1O[C@@](CO)(O[C@H]2O[C@H](CO)[C@@H](O)[C@H](O)[C@H]2O)[C@@H](O)[C@@H]1O; assay: initial rates, Michaelis-Menten fit; assay type: biochemical, Metschnikowia gruessii; details: 0-225 mM sucrose, standard assay 50 mM sodium phosphate pH 7.0, 30 °C
[2] = substrate: OC[C@H]1O[C@@](CO)(O[C@H]2O[C@H](CO)[C@@H](O)[C@H](O)[C@H]2O)[C@@H](O)[C@@H]1O; assay: initial rates, Michaelis-Menten fit; assay type: biochemical, Metschnikowia reukaufii; details: 0-225 mM sucrose, standard assay 50 mM sodium phosphate pH 7.0, 30 °C

Protein	Km [1] [mM]	kcat [1] [s⁻¹]	kcat/Km [1] [M⁻¹ s⁻¹]	Km [2] [mM]	kcat [2] [s⁻¹]	kcat/Km [2] [M⁻¹ s⁻¹]
B1	54.1 ± 5.8	270 ± 10.9	4900 ± 700			
B2				64.9 ± 4.6	477 ± 13.7	7400 ± 700
